Assay results taken from article PMC11143254, “Cryo-EM structure of cadmium-bound human ABCB6” (Communications Biology, 2024).

Biological target: the molecule itself
Experiment: cryo-EM structure; nanodisc-reconstituted hABCB6^core (0.5 mg/mL) incubated with 800 uM CdCl2 and 1 mM GSH (or PC2) at 4 °C for 30 min; C2 symmetry; inward-facing homodimer

B1: human ABCB6 core region lacking TMD0 (hABCB6^core) (domain or fragment, UniProt Q9NP58 206-842, looked up)
chain: APGLRPQSYTLQVHEEDQDVERSQVRSAAQQSTWRDFGRKLRLLSGYLWPRGSPALQLVVLICLGLMGLERALNVLVPIFYRNIVNLLTEKAPWNSLAWTVTSYVFLKFLQGGGTGSTGFVSNLRTFLWIRVQQFTSRRVELLIFSHLHELSLRWHLGRRTGEVLRIADRGTSSVTGLLSYLVFNVIPTLADIIIGIIYFSMFFNAWFGLIVFLCMSLYLTLTIVVTEWRTKFRRAMNTQENATRARAVDSLLNFETVKYYNAESYEVERYREAIIKYQGLEWKSSASLVLLNQTQNLVIGLGLLAGSLLCAYFVTEQKLQVGDYVLFGTYIIQLYMPLNWFGTYYRMIQTNFIDMENMFDLLKEETEVKDLPGAGPLRFQKGRIEFENVHFSYADGRETLQDVSFTVMPGQTLALVGPSGAGKSTILRLLFRFYDISSGCIRIDGQDISQVTQASLRSHIGVVPQDTVLFNDTIADNIRYGRVTAGNDEVEAAAQAAGIHDAIMAFPEGYRTQVGERGLKLSGGEKQRVAIARTILKAPGIILLDEATSALDTSNERAIQASLAKVCANRTTIVVAHRLSTVVNADQILVIKDGCIVERGRHEALLSRGGVYADMWQLQQGQEETSEDTKPQTMER
notes: human ABCB6, core region lacking the N-terminal TMD0, residues 206-842, codon-optimized synthetic gene; Homodimeric half-transporter; The C-terminal tag (thrombin site, eGFP, 10xHis) was removed by thrombin; residues of the cleavage site may remain; Modelled residues exclude the extreme N-terminus and residues 827-842; not shown: eGFP, C-terminal, cleaved; 10xHis, C-terminal, cleaved
stoichiometry N: 2
